Assay results published in US20240409645A1 (DUALYX, published 2024).

T1: human IL-2Rβ (human, UniProt P14784 27-240, limits assumed)
T1 construct: recombinant protein, coated or immobilised; also called hu IL-2R; IL-2R beta
T1 sequence: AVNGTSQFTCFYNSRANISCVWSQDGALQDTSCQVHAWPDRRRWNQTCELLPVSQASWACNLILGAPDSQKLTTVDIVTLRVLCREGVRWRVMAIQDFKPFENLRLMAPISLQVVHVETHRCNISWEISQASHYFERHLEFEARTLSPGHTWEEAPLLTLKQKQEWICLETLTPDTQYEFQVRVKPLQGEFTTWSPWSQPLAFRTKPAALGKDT


How the values were obtained:
human IL-2Rβ [1] = molecular target: T1, human IL-2Rβ; test: SPR, P.E. off-rate
Protocol: SPR was performed to determine dissociation rates using Biacore 3000 instrument (GE Healthcare). Briefly, human and mouse IL-2R proteins were immobilized on carboxylmethyl dextran sensor chip (CM5) at approximately 2500 RUs using amine coupling in acetate buffer (GE Healthcare). The VHH-containing P.E. were loaded with a flow rate of 30 uL/min and the off-rates were measured over a 120s period.

human IL-2Rβ [2] = molecular target: T1, human IL-2Rβ; test: P.E. ELISA, coated protein
Protocol: In a binding ELISA, human or mouse IL-2Rα, IL-2Rβ and IL-2Rγ proteins were coated directly on maxisorp microtiter plates overnight at 4° C. Free binding sites were blocked using 4% Marvel in PBS for 1 hour. Next, 1:5 dilution of P.E. in 1% Marvel/PBS were added to wells and incubated for 1 hour. […] Binding specificity was determined based on O.D. at 450 nm values compared to negative controls.

Binder | koff (human IL-2Rβ [1]) [s⁻¹] | P.E. binding ELISA OD (human IL-2Rβ [2]) [OD450 nm]
FJ1427 P035MP02H05 (VHH, soluble VHH in periplasmic extract; also called clone nr) VHH: EVQLVESGGGSVQTGGSLRLSCVVSGSHFISDVMGWYRQVPGKQRELVADMADGGSAKYGDSVKGRFTILRDSVKNTVTLQMSSLNPEDTGVYYCKAGLWITGRHSDYWGQGTQVTVTS | 0.000268 | 0.192
FJ1427_P035MP02B09 (VHH, soluble VHH in periplasmic extract; also called clone nr) VHH: EVQLVESGGGLVQAGGSLRLSCAASGRTFSTTEMGWFRQAPGKEREFVAAITWTGRGTMYAESVEGRFTISRENAKNMVYLQMNSLKPEDTAIYYCAAARRGRAAVRSEGGYDFWGQGTQVTVSS | 0.00022 | 0.811
FJ1427_P035MP02A11 (VHH, soluble VHH in periplasmic extract; also called clone nr) VHH: EVQLVESGGGLVQAGGSLRLSCAASGRTFSTTEMGWFRQAPGKEREFVAAITWTGRGTMYAESVEGRFTISRENAKNMVYLQMNSLKPEDTAIYYCAAARRGRAAVRSEGGYDFWGQGTQATVSS | 0.000293 | 0.891
FJ1427_P035MP02B08 (VHH, soluble VHH in periplasmic extract; also called 16-MP02B08; clone nr) VHH: EVQLVESGGGLVQAGGSLRLSCAASGRAIENYPVGWFRQAPGKEREFVAAITWISGSTLYADSVKGRFTISRDNAKNTVYLQMSSLKPEDTALYYCAAALKTITRGQNDYSYWGQGTQVTVSS | 0.000141 | 1.38
FJ1427_P035MP02B10 (VHH, soluble VHH in periplasmic extract; also called clone nr; 170) VHH: QVQLVESGGGLVEAGGSLRLSCAASGRAFNNFPMGWFRQAPGKEREFVAAITWISGSTLYADSVKGRFTISRDKSKNTVYLQMSGLKPEDTALYYCAAALKTITRGQHDYTYWGQGTQVTVSS | 0.000284 | 0.476
FJ1427 P035MP02B07 (VHH, soluble VHH in periplasmic extract; also called clone nr) VHH: EVQLVESGGGLVEAGGSLRLSCAASGRAFNNFPMGWFRQAPGKEREFVAAITWISGSTLYADSVKGRFTISRDKSKNTVYLQMSGLKPEDTALYYCAAALKTITRGQHDYTYWGQGTQVTVSS | 0.000336 | 0.38
FJ1427 P035MP02H09 (VHH, soluble VHH in periplasmic extract; also called clone nr) VHH: QLQLVESGGGLVQPGGSLRLSCAAAGRAIENYPVGWFRRAPGKEREFVAAITWISGSTLYADSVKGRFTISRDNAKNTVYLQMSSLKPEDTALYYCAAALKTITRGQNDYSYWGQGTQVTVSS | 0.000141 | 1.51
FJ1427 P035MP03A12 (VHH, soluble VHH in periplasmic extract; also called 21-MP03A12; clone nr) VHH: EVQLVESGGGLVQAGGSLRLSCAASGRTFSINAMGWFRQAPGKEREFVAAISRSGGSTVYVDGVKGRFTISRDNAKNTVYLQMNSLEPEDTAVYYCAATMAVGWTTRWRTADFDSWGQGTQVTVSS | 0.00628 | 0.146
FJ1427_P035MP02B03 (VHH, soluble VHH in periplasmic extract; also called clone nr) VHH: QVQLVESGGGLVQTGGSLRLSCAASGSRFVSDFMGWYRQVPGKQRELVADMADGGSARYGDSVKGRFTILRDSGNSTAYLQMSSLKPEDTGVYYCKAGLWIAGRHFDYWGQGTQVTVSS | 0.000215 | 0.383
FJ1427 P035MP02A07 (VHH, soluble VHH in periplasmic extract; also called clone nr) VHH: QVQLVESGGGLVQAGGSLRLSCAVSGDVFVRYTMAWFRQAPGKEREFVATVTDSGRTTEYVDSVKGRFTVSRDNAKNTVYLQMNNLKPEDTAVYYCAANTDYFRIRSLDANTWGQGTQVTVSS | 0.00211 | 0.791
FJ1427 P035MP02G08 (VHH, soluble VHH in periplasmic extract; also called clone nr) VHH: QVQLVESGGGLVQAGGSLRLSCTVSGDVFVRYTMAWFRQAPGKEREFVASVTDSGRTTEYVHSVRGRFTVSRDNAKNTVYLQMNNLKPEDTAVYYCAANTDYFRIRSLDANTWGQGTQVTVSS | 0.00178 | 0.441
FJ1427 P035MP02D08 (VHH, soluble VHH in periplasmic extract; also called clone nr) VHH: EVQLVESGGGLVQAGGSLRLSCVVSGDVFVRYTMAWFRQAPGKEREFVTSITDSGRTTEYVDSVKGRFTVSRDNAKNTVYLQMNNLKPEDTAVYYCAANTDYFRIRSLDANTWGQGTQVTVSS | 0.00236 | 0.905
FJ1427 P035MP02F02 (VHH, soluble VHH in periplasmic extract; also called clone nr; 110) VHH: EVQLVESGGGLVQAGGSLRLACALSGDVFVRYTMAWFRQAPGKEREFVASVTDSGRTTDYVASVQGRFTVSRDNNKNTVYLQMNSLKPEDTAVYYCAANTDYFQIRSLDRNTWGQGTQVTVSS | 0.000617 | 0.684
FJ1427 P035MP02D09 (VHH, soluble VHH in periplasmic extract; also called clone nr) VHH: QVQLVESGGGLVQAGGSLRLACALSGDVFVRYTMAWFRQAPGKEREFVASVTDSGRTTDYVASVQGRFTVSRDNNKNTVYLQMNSLKPEDTAVYYCAANTDYFQIRSLDRNTWGQGTQVTVSS | 0.000498 | 1.47
FJ1427 P035MP02H10 (VHH, soluble VHH in periplasmic extract; also called clone nr) VHH: EVQLVESGGGLVQAGGSLRLSCAASGDVFVRYTMAWFRQAPGKEREFVASVTDSGRTTDYVDSVKGRFTVSRDNAKNTVYLQMNNLKPEDTAVYYCAANTDYFQIKSLDRNTWGQGTQVTVSS | 0.000757 | 0.435
FJ1427_P035MP02A08 (VHH, soluble VHH in periplasmic extract; also called clone nr) VHH: EVQLVESGGGLVQAGGSLRLSCTVSGDVFVRYTMAWFRQAPGKEREFVATVTDSGRTTEYVDSVKGRFTVSRDNAKNTVYLQMNNLKPEDTAVYYCAANTDYFRIRSLDANTWGQGTQVTVSS | 0.00198 | 1.79

Further lines, results first:

koff (human IL-2Rβ [1]) [s⁻¹] | P.E. binding ELISA OD (human IL-2Rβ [2]) [OD450 nm] | Binder
0.000374 | 0.298 | FJ1427_P035MP02D06 (VHH, soluble VHH in periplasmic extract; also called clone nr; 140) VHH: EVQLVESGGGLVQTGGSLRLSCAASGSQFINDVMGWYRQVPGKQRELVADMDDTGSTKYADSVKGRFTILRDSVKNTAYLQMSNLKPEDTGVYYCKAGLWIKGRHSDYWGQGTQVTVSS
0.000982 | 0.747 | FJ1427_P035MP02D07 (VHH, soluble VHH in periplasmic extract; also called clone nr) VHH: EVQLVESGGGLVQAGGSLRLSCAASGRSLSTTEMGWFRQAPGKEREFVAAITWSGRGTMYAESVEGRFAVSRENAKNTVYLQMNSLKPEDTAIYYCAAARRGRAAVRSEGGYDFWGQGTQVTVSS
0.000615 | 1.39 | FJ1427_P035MP02E10 (VHH, soluble VHH in periplasmic extract; also called clone nr) VHH: QVQLVESGGGLVQAGGSLRLSCAAAGRAIENYPVGWFRRAPGKEREFVAAITWISGSTLYADSVKGRFTISRDNAKNTVYLQMSSLKPEDTALYYCAAALKTITRGQNDYSYWGQGTQVTVSS
0.00231 | 0.731 | FJ1427_P035MP02C07 (VHH, soluble VHH in periplasmic extract; also called clone nr) VHH: QVQLVESGGGLVQAGGSLRLSCAASGRTFSINTMGWFRQAPGKEREFVAAISRSGDSTVYVDSVKGRFTISRDNAKNTVYLQMNTLKPEDTAVYYCATTVAVGWTTRWSTIDFDSWGQGTQVTVSS
0.000203 | 0.214 | FJ1427_P035MP02F06 (VHH, soluble VHH in periplasmic extract; also called clone nr) VHH: EVQLVESGGGLVQTGGSLRLSCAASGSRFISDFMGWYRQVPGKQRELVADMADGGSARYGDSVKGRFTILRESGNATAYLQMSSLKPEDTGVYYCKAGLWIAGRHFDYWGQGTQVTVSS
0.00057 | 0.401 | FJ1427_P035MP02C02 (VHH, soluble VHH in periplasmic extract; also called clone nr) VHH: QVQLVESGGGLVQPGGSLRLSCAASGSRFVSDFMGWYRQVPGKQRELVADMADGGSARYGDSVKGRFTILRDNMNSTAFLQMSSLKPEDTGVYYCKAGLWIAGRHFDYWGQGTQVTVSS
0.00031 | 0.856 | FJ1427_P035MP02E05 (VHH, soluble VHH in periplasmic extract; also called clone nr) VHH: EVQLVESGGGLVQIGGSLRLSCAASGRTFSSITMAYFRQVPGKEHEWVAGINFSGTRTFYADSVKGRFLISRDDAKSTMYLQMNSLKPEDTAVYYCAASPRGFYGPGNALYDYWGQGTQVTVSS
0.000521 | 1.29 | FJ1427_P035MP02C10 (VHH, soluble VHH in periplasmic extract; also called clone nr) VHH: QVQLVESGGGLVQAGGSLRLACALSGDVFVRYTMAWFRQAPGKEREFVASVTDSGRTTDYVASVQGRFTVSRDNNKNTVYLQMNSLKPEDTAVYYCAANTDYFQIRSLDRNTWGQGTQVTVSS
0.000846 | 0.45 | FJ1427_P035MP02E08 (VHH, soluble VHH in periplasmic extract; also called clone nr) VHH: EVQLVESGGGLVQAGGSLRLSCVVSGDVFVRYTMAWFRQAPGKEREFVAVVTDSGRTTEYVDSVKGRFTVSRDNAKNTVYLQMNNLKPEDTAVYYCAANTDYFQIRSVDNNAWGQGTQVTVSS
0.0011 | 0.527 | FJ1427_P035MP02G09 (VHH, soluble VHH in periplasmic extract; also called clone nr) VHH: QVQLVESGGGLVQAGGSLRLSCTVSGDVFVRYTMAWFRQAPGKEREFVALVTDSGRTTEYVDSVKGRFTVSRDNAKNTVYLQMNNLKPEDTAVYYCAANTDYFRIRSLDANTWGQGTQVTVSS
0.000788 | 0.595 | FJ1427_P035MP02F10 (VHH, soluble VHH in periplasmic extract; also called clone nr) VHH: EVQLVESGGGLVQAGGSLRLSCVVSGDVFVRYTMAWFRQAPGKEREFVAVVTDSGRTTEYVDSVKGRFTVSRDNAKNTVYLQMNNLKPEDTAVYYCAANTDYFQIRSVDNNAWGQGTQVTVSS
0.00107 | 1.47 | FJ1427_P035MP02F09 (VHH, soluble VHH in periplasmic extract; also called clone nr) VHH: EVQLVESGGGLVQAGGSLRLSCAASGDVFVRYTMAWFRQAPGKEREFVASVTDSGRTTDYVDSVKGRFTVSRDNAKNTVYLQMNNLKPEDTAVYYCAANTDYFQIRSLEFNTWGQGTQVTVSS
